Test results published in patent US20210063414A1, “METHODS FOR PREVENTING AND/OR TREATING BONE LOSS CONDITIONS BY MODULATING IRISIN” (Dana-Farber Cancer Institute, Inc., priority 2018, published 2021).

Legend:
Assay in all cases: Crosslinking/co-immunoprecipitation/mass spectrometry (TMT quantitative proteomics) to identify irisin receptors
Assay type in all cases: binding
[1] = molecular target: T1, MLO-Y4 cell surface proteins (Mus musculus, UniProt Q8BJQ9); conditions: co-precipitated protein Csgalnact1 (CGAT1_MOUSE)
T1 construct: endogenous in cells; host or cells: MLO-Y4
T1 sequence (Q8BJQ9 1-530): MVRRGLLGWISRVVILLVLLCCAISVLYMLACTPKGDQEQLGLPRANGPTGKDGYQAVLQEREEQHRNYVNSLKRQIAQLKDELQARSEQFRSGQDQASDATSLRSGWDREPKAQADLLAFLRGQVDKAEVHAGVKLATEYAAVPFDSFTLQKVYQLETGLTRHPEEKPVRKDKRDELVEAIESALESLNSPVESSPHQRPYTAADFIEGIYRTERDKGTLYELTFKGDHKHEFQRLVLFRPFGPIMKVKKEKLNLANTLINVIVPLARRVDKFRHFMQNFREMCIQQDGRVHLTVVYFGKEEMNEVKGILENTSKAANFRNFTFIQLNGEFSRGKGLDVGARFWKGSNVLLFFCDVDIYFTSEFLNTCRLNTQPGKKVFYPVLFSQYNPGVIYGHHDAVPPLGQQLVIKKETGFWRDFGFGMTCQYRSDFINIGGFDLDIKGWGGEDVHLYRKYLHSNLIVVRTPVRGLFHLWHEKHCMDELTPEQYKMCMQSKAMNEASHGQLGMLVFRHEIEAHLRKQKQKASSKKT
How it was run: (§1)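 Relative protein abundance came from 6-plex TMT MS3 quantitation on an Orbitrap Fusion Lumos, after in-gel trypsin digestion of Coomassie-stained SDS-PAGE lanes. Input was a Ni-NTA pulldown (250 mM imidazole elution) of lysates from murine MLO-Y4 cells. These cells were treated on ice with His-tagged irisin or adipsin (10 nM, 20 min) in serum-free medium, then crosslinked with 1.5 mM DTSSP for 30 min.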

[2] = molecular target: T2, MLO-Y4 cell surface proteins (Mus musculus, UniProt Q99LC5); conditions: co-precipitated protein Etfa (ETFA_MOUSE)
T2 construct: endogenous in cells; host or cells: MLO-Y4
T2 sequence (Q99LC5 20-333): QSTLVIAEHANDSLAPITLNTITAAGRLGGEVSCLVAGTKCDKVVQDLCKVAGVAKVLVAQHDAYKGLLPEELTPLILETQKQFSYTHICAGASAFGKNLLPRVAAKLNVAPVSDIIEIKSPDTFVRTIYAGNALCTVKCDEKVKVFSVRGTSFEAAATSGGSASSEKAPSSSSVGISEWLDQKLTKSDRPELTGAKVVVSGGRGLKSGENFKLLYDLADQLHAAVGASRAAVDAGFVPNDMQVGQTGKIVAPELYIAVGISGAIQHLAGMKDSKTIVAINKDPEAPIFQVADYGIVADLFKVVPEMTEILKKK
How it was run: as §1

[3] = molecular target: T3, MLO-Y4 cell surface proteins (Mus musculus, UniProt Q9JHS4); conditions: co-precipitated protein Clpx (CLPX_MOUSE)
T3 construct: endogenous in cells; host or cells: MLO-Y4
T3 sequence (Q9JHS4 57-634): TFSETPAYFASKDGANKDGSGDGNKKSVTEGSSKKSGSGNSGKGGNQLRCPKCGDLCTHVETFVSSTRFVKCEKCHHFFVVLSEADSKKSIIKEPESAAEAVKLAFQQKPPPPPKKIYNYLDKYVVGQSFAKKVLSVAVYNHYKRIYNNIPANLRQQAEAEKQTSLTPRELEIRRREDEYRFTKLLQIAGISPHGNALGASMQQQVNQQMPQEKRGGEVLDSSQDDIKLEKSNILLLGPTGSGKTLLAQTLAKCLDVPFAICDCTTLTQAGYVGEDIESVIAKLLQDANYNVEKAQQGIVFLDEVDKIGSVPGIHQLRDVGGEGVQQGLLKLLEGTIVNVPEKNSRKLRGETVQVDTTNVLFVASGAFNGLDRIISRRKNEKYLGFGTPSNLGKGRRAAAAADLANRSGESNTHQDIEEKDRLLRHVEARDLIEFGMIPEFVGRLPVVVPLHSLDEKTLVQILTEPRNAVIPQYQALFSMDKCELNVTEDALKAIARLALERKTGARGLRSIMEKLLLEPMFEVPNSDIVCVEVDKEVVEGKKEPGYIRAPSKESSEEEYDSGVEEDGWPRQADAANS
How it was run: as §1

B1: irisin: secreted cleaved form of FNDC5; recombinant human/mouse irisin with C-terminal his tag produced in HEK293 cells (protein)
chain: DSPSAPVNVTVRHLKANSAVVSWDVLEDEVVIGFAISQQKKDVRMLRFIQEVNTTTRSCALWDLEEDTEYIVHVQAISIQGQSPASEPVLFKTPREAEKMASKNKDEVTMKE
modifications: left off: small tags and cut ends
notes: secreted cleaved form of FNDC5; recombinant human/mouse irisin with C-terminal his tag produced in HEK293 cells
- TMT signal-to-noise ratio [1]: 1300.88
- irisin/adipsin TMT signal-to-noise ratio [1]: 0.536
- TMT signal-to-noise ratio [2]: 44.9816
- irisin/adipsin TMT signal-to-noise ratio [2]: 0.561
- TMT signal-to-noise ratio [3]: 851.066
- irisin/adipsin TMT signal-to-noise ratio [3]: 0.561
